Assay results from US20110117113A1, “IMMUNOGLOBULIN SINGLE VARIABLE DOMAIN DIRECTED AGAINST HUMAN CXCR4 AND OTHER CELL ASSOCIATED PROTEINS AND METHODS TO GENERATE THEM” (priority 2009, published 2011).

Legend:
[1] = target: T1, CXCR4 mutation library clone 914 (N192K) (human, UniProt P61073 1-352); test: immunofluorescence on HEK-293T expressing the clone, normalised to wild type
[2] = target: CXCR4 mutation library clone 2396 (S178C) (human, UniProt P61073 1-352); test: as above
[3] = target: T2, CXCR4 mutation library clone 2834 (E179V, G258E) (human, UniProt P61073 1-352); test: as above
T2 chain: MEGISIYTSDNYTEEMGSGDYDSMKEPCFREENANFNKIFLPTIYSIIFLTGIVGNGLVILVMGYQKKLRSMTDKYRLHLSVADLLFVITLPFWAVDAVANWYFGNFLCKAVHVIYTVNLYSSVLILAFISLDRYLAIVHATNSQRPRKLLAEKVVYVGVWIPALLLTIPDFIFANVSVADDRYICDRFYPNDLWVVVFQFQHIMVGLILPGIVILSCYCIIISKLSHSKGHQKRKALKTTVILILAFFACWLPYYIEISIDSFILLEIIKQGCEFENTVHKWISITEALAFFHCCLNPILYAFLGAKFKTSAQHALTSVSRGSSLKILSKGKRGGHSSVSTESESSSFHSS

[4] = target: T3, CXCR4 mutation library clone 1057 (K230E, S178R) (human, UniProt P61073 1-352); test: as above
T3 chain: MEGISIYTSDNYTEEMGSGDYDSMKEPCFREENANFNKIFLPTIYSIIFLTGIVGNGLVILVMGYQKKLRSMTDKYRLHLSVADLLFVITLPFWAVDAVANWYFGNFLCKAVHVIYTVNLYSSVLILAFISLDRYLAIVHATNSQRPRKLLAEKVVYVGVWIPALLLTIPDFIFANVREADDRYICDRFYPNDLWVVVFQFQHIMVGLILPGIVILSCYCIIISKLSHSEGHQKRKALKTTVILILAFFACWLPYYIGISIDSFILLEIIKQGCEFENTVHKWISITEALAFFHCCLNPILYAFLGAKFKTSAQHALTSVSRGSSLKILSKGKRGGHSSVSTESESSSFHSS

[5] = target: T4, CXCR4 mutation library clone 414 (C218R, E179V, S351T) (human, UniProt P61073 1-352); test: as above
T4 chain: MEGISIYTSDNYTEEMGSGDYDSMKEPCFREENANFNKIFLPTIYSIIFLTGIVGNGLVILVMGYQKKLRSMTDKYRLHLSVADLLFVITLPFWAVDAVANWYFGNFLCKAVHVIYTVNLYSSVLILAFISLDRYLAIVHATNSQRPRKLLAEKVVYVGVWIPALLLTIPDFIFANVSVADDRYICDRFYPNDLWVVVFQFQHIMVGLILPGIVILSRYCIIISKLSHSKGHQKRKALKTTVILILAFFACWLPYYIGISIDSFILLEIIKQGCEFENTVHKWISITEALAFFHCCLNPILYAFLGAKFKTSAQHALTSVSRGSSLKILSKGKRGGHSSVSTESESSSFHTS

[6] = target: T5, CXCR4 mutation library clone 709 (P163L, S178I) (human, UniProt P61073 1-352); test: as above
T5 chain: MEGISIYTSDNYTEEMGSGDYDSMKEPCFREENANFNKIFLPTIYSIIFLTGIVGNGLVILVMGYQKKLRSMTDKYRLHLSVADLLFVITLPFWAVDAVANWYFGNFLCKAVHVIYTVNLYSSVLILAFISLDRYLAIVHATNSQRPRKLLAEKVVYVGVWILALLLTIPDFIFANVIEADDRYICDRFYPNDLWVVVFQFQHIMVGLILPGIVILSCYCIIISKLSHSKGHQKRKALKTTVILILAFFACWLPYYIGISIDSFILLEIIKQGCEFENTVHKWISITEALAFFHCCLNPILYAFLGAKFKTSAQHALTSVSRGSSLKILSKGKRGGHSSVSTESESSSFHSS

[7] = target: T1, CXCR4 mutation library clone 914 (N192K); test: immunofluorescence, high stringency, average for residue N192 (one clone)
[8] = target: all CXCR4 library clones containing a mutation at E277; test: immunofluorescence, high stringency, average over all clones with a mutation at E277
[9] = target: all CXCR4 library clones containing a mutation at F189; test: immunofluorescence, average over all clones with a mutation at F189

B1: Nanobody 238D2 (VHH)
VHH: EVQLVESGGGLVQTGGSLRLSCAASGFTFSSYAMSWVRQAPGKGLEWVSGIKSSGDSTRYAGSVKGRFTISRDNAKNMLYLQMYSLKPEDTAVYYCAKSRVSRTGLYTYDNRGQGTQVTVSS
[1]
  % immunofluorescence: 8.3%
[2]
  % immunofluorescence: 44.9%
[3]
  % immunofluorescence: 84.6%
[4]
  % immunofluorescence: 54.6%
[5]
  % immunofluorescence: 71.1%
[6]
  % immunofluorescence: 64.1%
[7]
  average nanobody reactivity: 8.3%
[8]
  average nanobody reactivity: 27.5%
[9]
  average nanobody reactivity: -0.9%
